Experimental data published in patent publication US20170044260A1 (Innovent, published 2017).

Tests used:
[1] = target: T1, human PD-1 on cells (human, UniProt Q15116 25-288); experiment: flow cytometry blocking: CHO cells with human PD-1, 100 nM antibody, then PD-L2-FITC (competitor); remaining PD-L2-FITC signal
[2] = target: cynoPD-1_Fc (cyno, UniProt B0LAJ3 25-170); experiment: bio-layer interferometry (ForteBio), monovalent: Fab in solution, cynoPD-1_Fc on sensor tip
[3] = target: cynoPD-1_Fc (cyno) (UniProt B0LAJ3); experiment: as above
Sequence of cynoPD-1_Fc (cyno) (B0LAJ3 entry or part of it limits assumed): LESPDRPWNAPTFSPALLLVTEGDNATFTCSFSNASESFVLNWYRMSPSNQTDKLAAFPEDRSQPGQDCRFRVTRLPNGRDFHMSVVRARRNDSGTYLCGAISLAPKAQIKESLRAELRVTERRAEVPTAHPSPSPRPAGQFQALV

[4] = target: T1, human PD-1 on cells; experiment: cell-based or functional assay
[5] = target: T1, human PD-1 on cells; experiment: cell-based or functional assay; remark: listed apart in the source
[6] = target: T1, human PD-1 on cells; experiment: flow cytometry on CHO cells with human PD-1, PE-labelled secondary antibody
Experimental: Cells are then washed 3×, and are incubated with a secondary antibody (PE-labelled, at final concentration of 5 μg/ml) in PBS 1% BSA for 30 min on ice (protected from light). Cells are washed 3× and analyzed via flow cytometry. Flow cytometry is performed on an Accuri C6 system (BD Biosciences) and MFIs are calculated on the C6 software. EC50s are calculated on Graphpad software.

[7] = target: T2, hPD-1_Fc (human, UniProt Q15116 25-167, limits assumed); experiment: bio-layer interferometry (ForteBio), monovalent: Fab in solution, hPD-1_Fc on sensor tip
T2 construct: also called human PD-1_Fc; not shown: Fc part
T2 sequence (Q15116 25-167 limits assumed): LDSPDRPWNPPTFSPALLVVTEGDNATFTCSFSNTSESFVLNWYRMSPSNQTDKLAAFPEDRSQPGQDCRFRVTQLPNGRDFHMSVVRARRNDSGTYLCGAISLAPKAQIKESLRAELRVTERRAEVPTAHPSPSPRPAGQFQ

[8] = target: T2, hPD-1_Fc; experiment: bio-layer interferometry, PD-1_Fc on the sensor tip; reference nivolumab and pembrolizumab
[9] = target: T3, hPD-1_HIS (human, UniProt Q15116 25-167, limits assumed); experiment: bio-layer interferometry (ForteBio), monovalent: hPD-1_HIS in solution, IgG on sensor tip
T3 construct: not shown: His tag
T3 sequence (Q15116 25-167 limits assumed): as above
Experimental: Briefly, ForteBio affinity measurements are performed by loading IgGs online onto AHQ sensors. Sensors are equilibrated off-line in assay buffer for 30 min and then monitored on-line for 60 seconds for baseline establishment. Sensors with loaded IgGs are exposed to 100 nM antigen for 5 min, afterwards they are transferred to assay buffer for 5 min for off-rate measurement. Kinetics are analyzed using the 1:1 binding model.

[10] = target: T3, hPD-1_HIS; experiment: bio-layer interferometry, antibody on the sensor tip; reference nivolumab and pembrolizumab
[11] = target: T4, b-PD-1 monomer (human, UniProt Q15116 25-167, limits assumed, biotinylated (b-); site not stated); experiment: MSD solution equilibrium titration, monovalent KD against human PD-1; monovalent KD, IgG1 format
T4 construct: also called human PD-1; antigen of the MSD assay
T4 sequence (Q15116 25-167 limits assumed): as above
Experimental: (§1) Equilibrium affinity measurements are performed as previously described (Estep, P., et al., MAbs, 2013. 5(2): p. 270-8). […] Antibodies diluted at 20 nM in PBS are coated onto standard bind MSD-ECL plates overnight at 4° C. or at room temperature for 30 min. Plates are blocked with BSA for 30 min whilst shaking at 700 rpm. Plates are then washed 3× with wash buffer (PBSF+0.05% Tween 20). SET samples are applied and incubated on the plates for 150 s with shaking at 700 rpm followed by one wash. Antigen captured on a plate is detected with 250 ng/mL sulfotag-labeled streptavidin in PBSF by incubation on the plate for 3 min. The plates are washed three times with wash buffer and are then read on the MSD Sector Imager 2400 instrument using 1× Read Buffer T with surfactant. The percent free antigen is plotted as a function of titrated antibody in Prism and fit to a quadratic equation to extract the KD. To improve throughput, liquid handling robots are used throughout MSD-SET experiments, including for SET sample preparation.

[12] = target: T5, human PD-1 (antigen of the avid KD measurement by MSD) (human, UniProt Q15116 25-167, limits assumed); experiment: MSD solution equilibrium titration, avid KD against human PD-1; avid KD, IgG1 format
T5 sequence (Q15116 25-167 limits assumed): as above
Experimental: as §1

[13] = target: T6, human PD-1-Fc (R&D Systems) (human, UniProt Q15116 25-167); experiment: SPR (Biacore T200), human PD-1-Fc immobilized, antibody as analyte, 37° C.
T6 construct: not shown: Fc part of the bought fusion protein; not described
T6 sequence (Q15116 25-167 limits assumed): as above
Experimental: (§2) All sample analytes are run in 3-fold series dilutions from their starting concentration (90 nM), 8 total dilutions with one duplicate at a middle concentration and a zero. The analysis is performed at 37° C. The contact time for each sample is 180 sec at 30 μl/min. The dissociation time: 300 seconds for 5 lower concentrations and 1200 (Fab), or 2400 (T=0) or 3000 (4 weeks 4° C., 25° C., 40° C.) seconds for 3 higher concentrations. The immobilized surface is regenerated for 6-8 seconds with 0.4% SDS at 30 ul/min, and then stabilized for 5 seconds. Binding kinetics are analyzed using the Biacore T200 Evaluation software (Version 3.0). Data are referenced to a blank flow cell, and the data are fit to a 1:1 binding model.

[14] = target: T6, human PD-1-Fc (R&D Systems); experiment: SPR (Biacore T200), human PD-1-Fc immobilized, antibody stored 4 weeks at 40° C. as analyte, 37° C.
Experimental: as §2

[15] = target: T6, human PD-1-Fc (R&D Systems); experiment: SPR (Biacore T200), human PD-1-Fc immobilized, antibody stored 4 weeks at 25° C. as analyte, 37° C.
Experimental: as §2

[16] = target: T7, biotinylated PD-1-Fc fusion protein (human, UniProt Q15116 25-170, limits assumed, biotinylated; site not stated); experiment: ELISA blocking: antibody mixed with biotinylated PD-1-Fc, plate coated with PD-L1-Fc (competitor)
T7 construct: also called human PD-1; not shown: Fc part; not described
T7 sequence (Q15116 25-170 limits assumed): as the sequence (B0LAJ3 entry or part of it limits assumed) above, with E2D, A10P, L19V, A35T, R75Q, A144T counted along it

[17] = target: T7, biotinylated PD-1-Fc fusion protein; experiment: ELISA blocking: antibody mixed with biotinylated PD-1-Fc, plate coated with PD-L2-Fc (competitor)
[18] = target: T6, human PD-1-Fc (R&D Systems); experiment: SPR (Biacore T200), human PD-1-Fc immobilized, antibody stored 4 weeks at 4° C. as analyte, 37° C.
Experimental: as §2

[19] = target: T5, human PD-1 (antigen of the avid KD …); experiment: MSD solution equilibrium titration, avid KD against human PD-1
Experimental: as §1

[20] = target: T4, b-PD-1 monomer; experiment: MSD solution equilibrium titration, monovalent KD against human PD-1
Experimental: as §1

T1 sequence (Q15116 25-288 limits assumed): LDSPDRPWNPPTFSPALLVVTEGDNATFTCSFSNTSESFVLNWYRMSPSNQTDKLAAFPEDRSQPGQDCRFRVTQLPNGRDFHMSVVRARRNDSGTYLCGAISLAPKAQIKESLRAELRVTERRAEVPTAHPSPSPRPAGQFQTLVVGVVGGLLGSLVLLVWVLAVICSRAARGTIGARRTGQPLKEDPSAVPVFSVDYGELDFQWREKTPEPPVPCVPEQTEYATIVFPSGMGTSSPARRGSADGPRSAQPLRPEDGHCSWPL
Sequence of cynoPD-1_Fc (B0LAJ3 entry or part of it limits assumed): as the sequence (B0LAJ3 entry or part of it limits assumed) above

control IgG (antibody)
MFI (PD-L2-FITC) [1]: 183000 MFI

Fab of Nivolumab in IgG1 format
Kd [2]: 1.2 nM

Fab of Pembrolizumab in IgG1 format
Kd [3]: 0.47 nM

B1: Antibody G (S228P IgG4) (antibody, V domains shown)
VH: QVQLVQSGAEVKKPGSSVRVSCKASGGTLSSYAISWVRQAPGQGLEWMGLIIPMFGAAGYAQRFQGRVTITADESASTAYMELSSLRSEDTAVYYCARAEHSSTGTFDYWGQGTLVTVSS
VL: DIQMTQSPSSVSASVGDRVTITCRASQGISSWLAWYQQKPGKAPKLLISAASSLQSGVPSRFSGSGSGTDFTLTISSLQPEDFATYYCQQANHLPFTFGGGTKVEIKR
IL-2 secretion fold change vs. IgG control, 0.01 nM IgG (mixed lymphocyte reaction) [4]: 1.36 fold
IL-2 secretion fold change vs. IgG control, 0.1 nM IgG (mixed lymphocyte reaction) [4]: 1.91 fold
IL-2 secretion fold change vs. IgG control, 1 nM IgG (mixed lymphocyte reaction) [4]: 3.12 fold
IL-2 secretion fold change vs. IgG control, 10 nM IgG (mixed lymphocyte reaction) [4]: 2.62 fold
IL-2 secretion fold change vs. IgG control, 100 nM IgG (mixed lymphocyte reaction) [4]: 2.45 fold
IFN-γ secretion fold change vs. IgG control, 0.01 nM IgG (mixed lymphocyte reaction) [5]: 1.17 fold
IFN-γ secretion fold change vs. IgG control, 0.1 nM IgG (mixed lymphocyte reaction) [5]: 1.91 fold
IFN-γ secretion fold change vs. IgG control, 1 nM IgG (mixed lymphocyte reaction) [5]: 2.48 fold
IFN-γ secretion fold change vs. IgG control, 10 nM IgG (mixed lymphocyte reaction) [5]: 2.04 fold
IFN-γ secretion fold change vs. IgG control, 100 nM IgG (mixed lymphocyte reaction) [5]: 2.07 fold
EC50 [6]: 1.76 nM

B2: Fab of Antibody D in IgG1 format (Fab, V domains shown)
VH: QVQLVQSGAEVKKPGSSVKVSCKASGGTFSSYAISWVRQAPGQGLEWMGLIIPMFDTAGYAQKFQGRVAITVDESTSTAYMELSSLRSEDTAVYYCARAEHSSTGTFDYWGQGTLVTVSS
VL: DIQMTQSPSSVSASVGDRVTITCRASQGISSWLAWYQQKPGKAPKLLISAASSLQSGVPSRFSGSGSGTDFTLTISSLQPEDFATYYCQQANHLPFTFGGGTKVEIK
notes: also called Fab in solution (row Antibody D in IgG1 format)
Kd [7]: 0.56 nM
fold lower KD than nivolumab and pembrolizumab [8]: 3 fold
Kd [2]: 0.67 nM

B3: Antibody D in IgG1 format (antibody, V domains shown)
VH: QVQLVQSGAEVKKPGSSVKVSCKASGGTFSSYAISWVRQAPGQGLEWMGLIIPMFDTAGYAQKFQGRVAITVDESTSTAYMELSSLRSEDTAVYYCARAEHSSTGTFDYWGQGTLVTVSS
VL: DIQMTQSPSSVSASVGDRVTITCRASQGISSWLAWYQQKPGKAPKLLISAASSLQSGVPSRFSGSGSGTDFTLTISSLQPEDFATYYCQQANHLPFTFGGGTKVEIK
notes: IgG1 format, expressed in yeast; also called Antibody D in an IgG1 format and expressed in yeast
Kd [9]: 0.31 nM
fold lower KD than nivolumab and pembrolizumab [10]: 6 fold
Kd [11]: 0.012 nM
Kd [12]: 0.0009 nM

B4: Antibody D (S228P IgG4) (antibody, V domains shown)
VH: QVQLVQSGAEVKKPGSSVKVSCKASGGTFSSYAISWVRQAPGQGLEWMGLIIPMFDTAGYAQKFQGRVAITVDESTSTAYMELSSLRSEDTAVYYCARAEHSSTGTFDYWGQGTLVTVSS
VL: DIQMTQSPSSVSASVGDRVTITCRASQGISSWLAWYQQKPGKAPKLLISAASSLQSGVPSRFSGSGSGTDFTLTISSLQPEDFATYYCQQANHLPFTFGGGTKVEIKR
Kd [13]: 0.104 nM
koff [13]: 2.98e-05 s⁻¹
kon [13]: 286000 M⁻¹ s⁻¹
Kd [14]: 0.118 nM
koff [14]: 4.22e-05 s⁻¹
kon [14]: 358000 M⁻¹ s⁻¹
Kd [15]: 0.102 nM
koff [15]: 3.6e-05 s⁻¹
kon [15]: 354000 M⁻¹ s⁻¹
IC50 [16]: 0.3 nM
IL-2 secretion fold change vs. IgG control, 0.01 nM IgG (mixed lymphocyte reaction) [4]: 1.25 fold
IL-2 secretion fold change vs. IgG control, 0.1 nM IgG (mixed lymphocyte reaction) [4]: 1.64 fold
IL-2 secretion fold change vs. IgG control, 1 nM IgG (mixed lymphocyte reaction) [4]: 2.45 fold
IL-2 secretion fold change vs. IgG control, 10 nM IgG (mixed lymphocyte reaction) [4]: 2.63 fold
IL-2 secretion fold change vs. IgG control, 100 nM IgG (mixed lymphocyte reaction) [4]: 3.08 fold
IC50 [17]: 0.34 nM
IFN-γ secretion fold change vs. IgG control, 0.01 nM IgG (mixed lymphocyte reaction) [5]: 1.32 fold
IFN-γ secretion fold change vs. IgG control, 0.1 nM IgG (mixed lymphocyte reaction) [5]: 1.94 fold
IFN-γ secretion fold change vs. IgG control, 1 nM IgG (mixed lymphocyte reaction) [5]: 2.26 fold
IFN-γ secretion fold change vs. IgG control, 10 nM IgG (mixed lymphocyte reaction) [5]: 1.99 fold
IFN-γ secretion fold change vs. IgG control, 100 nM IgG (mixed lymphocyte reaction) [5]: 1.72 fold
Kd [18]: 0.103 nM
koff [18]: 3.86e-05 s⁻¹
kon [18]: 377000 M⁻¹ s⁻¹
EC50 [6]: 0.978 nM

B5: Antibody G in IgG1 format (antibody, V domains shown)
VH: QVQLVQSGAEVKKPGSSVRVSCKASGGTLSSYAISWVRQAPGQGLEWMGLIIPMFGAAGYAQRFQGRVTITADESASTAYMELSSLRSEDTAVYYCARAEHSSTGTFDYWGQGTLVTVSS
VL: DIQMTQSPSSVSASVGDRVTITCRASQGISSWLAWYQQKPGKAPKLLISAASSLQSGVPSRFSGSGSGTDFTLTISSLQPEDFATYYCQQANHLPFTFGGGTKVEIK
notes: IgG1 format, expressed in yeast; also called Antibody G in an IgG1 format and expressed in yeast
Kd [19]: 0.001 nM
Kd [20]: 0.014 nM
Kd [9]: 0.44 nM
fold lower KD than nivolumab and pembrolizumab [10]: 4 fold

B6: Fab of Antibody G in IgG1 format (Fab, V domains shown)
VH: QVQLVQSGAEVKKPGSSVRVSCKASGGTLSSYAISWVRQAPGQGLEWMGLIIPMFGAAGYAQRFQGRVTITADESASTAYMELSSLRSEDTAVYYCARAEHSSTGTFDYWGQGTLVTVSS
VL: DIQMTQSPSSVSASVGDRVTITCRASQGISSWLAWYQQKPGKAPKLLISAASSLQSGVPSRFSGSGSGTDFTLTISSLQPEDFATYYCQQANHLPFTFGGGTKVEIK
notes: also called Fab in solution (row Antibody G in IgG1 format)
Kd [7]: 0.49 nM
fold lower KD than nivolumab and pembrolizumab [8]: 4 fold
Kd [2]: 0.59 nM
